Legend:
Conditions in all cases: protein: ivt; label: radiolabelled (EMSA); 5' overhang 4 nt on each strand
Su(H) S269A = Su(H) S269A (Drosophila melanogaster, UniProt P28159 1-594, S269A); assay: EMSA; no obvious difference from wt; self-competition with unlabelled oligo; EMSA: 10 mM Tris-HCl pH 7.5, 50 mM NaCl, 1 mM EDTA, 0.0275 ug/ul salmon sperm DNA; ITC: 50 mM sodium phosphate pH 6.5, 150 mM NaCl, 10 C, 10 uM Su(H) in cell, 100 uM DNA in syringe
Su(H) wt = Su(H) wt (Drosophila melanogaster, UniProt P28159 1-594); assay: EMSA; self-competition with unlabelled oligo; EMSA: 10 mM Tris-HCl pH 7.5, 50 mM NaCl, 1 mM EDTA, 0.0275 ug/ul salmon sperm DNA; ITC: 50 mM sodium phosphate pH 6.5, 150 mM NaCl, 10 C, 10 uM Su(H) in cell, 100 uM DNA in syringe
Chain of Su(H) wt (P28159 whole entry): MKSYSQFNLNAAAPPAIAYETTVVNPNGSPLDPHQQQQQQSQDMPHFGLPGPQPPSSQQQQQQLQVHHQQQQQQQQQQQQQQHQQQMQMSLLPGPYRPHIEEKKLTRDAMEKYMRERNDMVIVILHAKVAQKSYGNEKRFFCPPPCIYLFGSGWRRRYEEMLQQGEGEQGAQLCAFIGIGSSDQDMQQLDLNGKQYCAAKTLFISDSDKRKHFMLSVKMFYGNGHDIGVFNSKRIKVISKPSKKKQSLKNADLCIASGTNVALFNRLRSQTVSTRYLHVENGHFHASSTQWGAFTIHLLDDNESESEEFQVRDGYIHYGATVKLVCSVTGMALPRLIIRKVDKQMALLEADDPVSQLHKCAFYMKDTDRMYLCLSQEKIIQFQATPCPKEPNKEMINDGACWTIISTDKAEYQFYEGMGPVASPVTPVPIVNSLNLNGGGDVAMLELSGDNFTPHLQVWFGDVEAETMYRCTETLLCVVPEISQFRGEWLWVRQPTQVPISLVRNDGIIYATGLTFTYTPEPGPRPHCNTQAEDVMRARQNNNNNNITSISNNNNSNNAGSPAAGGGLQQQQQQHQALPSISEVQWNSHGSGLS

Su(H) R266H = Su(H) R266H (Drosophila melanogaster, UniProt P28159 1-594, R266H); assay: EMSA; EMSA: 10 mM Tris-HCl pH 7.5, 50 mM NaCl, 1 mM EDTA, 0.0275 ug/ul salmon sperm DNA; ITC: 50 mM sodium phosphate pH 6.5, 150 mM NaCl, 10 C, 10 uM Su(H) in cell, 100 uM DNA in syringe
Chain of Su(H) R266H (P28159 whole entry R266H): as the sequence (P28159 whole entry) above, with R266H counted along it

Chain of Su(H) S269A (P28159 whole entry S269A): as the sequence (P28159 whole entry) above, with S269A counted along it

B1: E(spl)m8-S1 (dsDNA)
DNA 1: TTGGGTGGCTCGTGGCGTGGGAACCGAGCTGAAAG
DNA 2: GGTTCTTTCAGCTCGGTTCCCACGCCACGAGCCAC
binding result (Su(H) S269A): binds | binding result (Su(H) wt): binds | binding result (Su(H) R266H): no binding

Source: paper PMC5605572, “Phosphorylation of Suppressor of Hairless impedes its DNA-binding activity”
